Test results taken from the supplement of paper PMC10567573.

B1: MLL5 (parent)
chain: HDDGYMICCDKCSVWQHIDCMGID
B2: CPXM2 (parent)
chain: TASTKNCMVGYDMGATRCDFTLSK

Variants of: B1
Assay: protein stability index of a GFP-peptide fusion (GPS, HEK-293T) (PSI 1-6); higher = more stable
Conditions: c terminus: a fixed tail appended
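Note: lentivirally expressed fusions sorted by FACS into six bins by GFP to DsRed ratio, PSI derived from sequencing read proportions per bin multiplied by bin number.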

Protein stability index: each site, then its substitutions
M21: A 2.94, W 2.03, Y 2.21, G 2.66, F 2.17, R 2.85, N 2.73, P 3.14, L 2.34, K 2.81, E 2.83, V 2.34, I 2.5, H 2.61, D 3.5, T 2.91, Q 2.91, S 2.41, C 2.78
C20: R 1.97, P 2.31, N 2.81, D 2.58, L 1.86, F 1.28, Y 1.68, G 2.19, M 1.79, Q 2.02, K 2.06, A 2.5, S 1.51, T 2.22, V 1.89, H 2.12, W 2.15, E 2.29, I 2.08
I18: W 2.38, Y 2.6
G22: T 2.19, K 2.78, M 2.25, D 3.8, N 2.58, A 2.2, V 1.59, H 2.79, Q 2.17, F 2.04, W 2.06, P 2.39, E 2.4, R 2.43, S 2.14, Y 2.24, I 2.06, C 3.79, L 1.81
I23: E 3.53, Y 2.34, Q 2.89, D 2.71, V 2.95, W 1.77, L 2.57, T 2.85, H 3.15, P 2.5, C 3.67, S 2.58, R 2.83, G 2.95, M 2.36, N 2.52, K 2.99, A 2.56, F 2.1
D24: M 1.56, F 1.89, V 2.47, K 2.13, R 1.93, L 2.79, C 2.68, Y 1.61, S 2.35, G 2.19, A 2.17, N 2.09, W 1.49, T 1.94, Q 2.47, P 2, E 2.46, H 2.29, I 2.21
D19: M 2, A 2.04, F 1.74, P 2.33, C 2.94, G 2.84, T 2.33, V 3.42, Y 1.72, H 2.2, W 1.98, K 2.52, S 1.78, Q 2.62, L 2.14, N 1.91, I 2.25, R 2.43, E 2.57

Variants of: B2
Assay: as above
Conditions: c terminus: a fixed tail appended

Protein stability index: each site, then its substitutions
C7: G 3.75, H 3.48, S 3.77, I 3.11, F 3.21, A 3.74, V 3.46, L 3.27, K 3.18, T 3.24, Q 3.69, E 4.44, P 3.48, Y 2.71, W 2.99, D 4, M 3.06, N 3.84, R 3.26
T4: Y 2, I 2.25, F 1.92, W 1.82, H 2, K 2.01, Q 2.25, S 1.93, A 2.23, P 2.47, R 1.91, N 2.4, C 2.65, D 3.17, M 2.58, E 2.12, L 1.85
V9: R 2.18, M 2.42, H 2.3, T 3.22, Y 2, K 2.12, I 2.49, C 2.31, F 1.63, A 2.62, L 2.05, D 3.58, P 2.89, S 2.36, N 2.81, W 2.09, Q 3.5, G 3.52, E 3.33
G10: D 2.37, C 2.2, S 2.75, W 1.64, I 1.67, T 1.93, K 2.42, F 1.58, P 1.76, N 1.86, A 1.97, R 1.84, V 2.72, M 1.96, Q 1.73, L 2.38, E 2.69, Y 3.56, H 1.74
N6: Y 1.68, Q 2.72, M 2.34, C 1.62, E 3.22, G 2.38, F 2.12, T 3.1, A 2.69, W 2.34, I 1.89, D 3.5, S 2.66, V 2.16, P 3.12, L 1.83, R 2.04, H 2.04, K 1.87
S3: V 3.26, N 2.37, D 3.57, P 2.57, K 1.99, F 1.63, H 1.97, C 2.08, G 2.47, E 3.06, I 1.67, W 2.09, M 2.1, Q 1.91, Y 1.88, A 2.3, T 2.4, R 1.28, L 2.16
T1: L 2.18, C 1.68, W 1.59, A 2.66, D 3.69, H 1.82, E 3.37, Q 2.52, M 2.45, Y 1.71, V 1.61, R 1.92, I 1.8, N 2.51, G 1.88, S 2.86, K 2.05, P 2.1
M8: K 3.26, Y 2.22, T 2.42, V 2.03, A 1.88, H 2.76, L 2.14, E 4.05, N 3.95, Q 2.62, C 1.77, W 2.15, P 2.06, F 2.73, G 2.08, R 1.35, S 2.48, I 1.62, D 4.13
K5: I 2.04, R 1.59, F 2.25, Q 2.4, C 1.74, S 2.63, W 1.97, P 3.18, E 3.21, V 2.42, H 2.4, D 3.25, Y 1.72, T 2.35, G 2.46, M 2.38, L 2.29, N 2.28, A 2.3
Y11: A 2.92, W 2.23, F 1.38, M 2.49, P 2.31, V 2.33, D 3.33, G 3.49, L 2.41, E 3.49, I 2.06, T 2.85, N 2.6, K 2.96, S 2.28, C 2.07, H 3.32, R 2.59, Q 3
A2: I 1.8, F 2.58, Y 2.31, R 2.68, W 1.73, G 2.91, V 2.21, C 1.64, N 3.16, T 2.06, M 2.41, H 2.26, E 3.9, L 1.99, P 3.08, S 2.58, K 2.04, Q 2.94, D 3.75
D12: F 1.62, A 2.37, I 1.58, P 2.15, C 1.88, L 1.21, K 2.47, E 2.02, H 2.14, M 1.46, N 2.02, G 1.89
